In patent US11452764B2, “Inhibiting FAK-AKT interaction to inhibit metastasis” (Board of Trustees of Michigan State University, priority 2017, dated 2022):

Tests used:
CT-26 cells = experiment: Pressure-induced adhesion of CT-26 cells inducibly expressing GFP-FAK-NT1; format: cell-based, murine
Description: A stable CT-26 cell line was generated per ARIAD-ARGENT protocols and GFP-FAK-NT1 expression was induced using 50 nM of the provided non-immunosuppressive rapalog, AP21967 with an equal volume of ethanol used as the control vehicle. Forty eight hours after induction, the cells were trypsinized for adhesion experiments.
Experimental pressure conditions were controlled using an airtight box with inlet and outlet valves, thumb screws, a pressure gauge and an O-ring for an airtight (11, 25). The box was prewarmed to 37° C. for 1 hour to […] minimize temperature fluctuations experienced by the cells. The gas used for pressurization was a filtered 5% CO2/95% air mixture consistent with the atmosphere in which the cells were routinely cultured. The temperature was maintained within ±2° C. and the pressure within ±1.5 mmHg.
100,000 Caco-2 or CT-26 cells were seeded to collagen I coated 6-well plates under ambient or increased pressure conditions for 30 minutes. Non-adherent cells were washed away, and the remainder fixed with 0.01 M NaIO4, 0.75 M lysine, 0.0375 M sodium phosphate buffer, pH 7.4, and 2% paraformaldehyde on ice for 1 hour. The adherent cells were counted microscopically in at least 20 random high power fields per well under a fluorescent microscope. […]

Caco-2 cells = experiment: Pressure-induced adhesion of Caco-2 cells transiently expressing GFP-FAK-NT1; format: cell-based, human; conditions: Caco-2, transient expression, vs GFP control
Description: Caco-2 cells were plated on p100 dishes at 30-35% confluence one day prior to transfection. The constructed or empty plasmids were transfected into Caco-2 cells at final concentrations of 2 μg/ml plasmid and 5 μg/ml Lipofectamine 2000. Five hours after transfection, the medium was replaced with 15 ml pre-warmed Caco-2 media without antibiotics. Forty eight hours after DNA transfection, the cells were trypsinized for adhesion or pull-down experiments.
Experimental pressure conditions were controlled using an airtight box with inlet and outlet valves, thumb screws, a pressure gauge and an O-ring for an airtight (11, 25). The box was prewarmed to 37° C. for 1 hour to […] minimize temperature fluctuations experienced by the cells. […]
100,000 Caco-2 or CT-26 cells were seeded to collagen I coated 6-well plates under ambient or increased pressure conditions for 30 minutes. […] The adherent cells were counted microscopically in at least 20 random high power fields per well under a fluorescent microscope.
To test whether this interaction of NT1 with Akt1 might have biological effects, we evaluated the effect of overexpressing NT1 in Caco-2 cells on the adhesive response to increased extracellular pressure, which requires FAK-Akt1 interaction. […]

B1: GFP-FAK-NT1: GFP fusion of FAK-NT1 (residues 1-126) expressed transiently or inducibly in cells (protein)
chain: MAAAYLDPNLNHTPNSSTKTHLGTGMERSPGAMERVLKVFHYFESNSEPTTWASIIRHGDATDVRGIIQKIVDSHKVKNVACYGFRLSHLRSEEVHWLHVDMGVSSVREKYELAHPPEEWKYELRI
modifications: left off: large carriers
notes: GFP fusion of FAK-NT1 (residues 1-126) expressed transiently or inducibly in cells
CT-26 cells; CT26, expression induced 48 hours before, 15 mmHg 30 minutes, vs GFP control
  Stimulation of cell adhesion by increased pressure: prevented the stimulation of cell adhesion by increased pressure
CT-26 cells; CT26, inducible expression
  Basal levels of adhesion: reduced
Caco-2 cells; 15 mmHg increased pressure 30 minutes
  Pressure-induced adhesion: inhibited
Caco-2 cells; ambient pressure
  Basal levels of adhesion: reduced
